± gives the standard error. This sample holds only a part of the variants without activity.
B1: glmS ribozyme (parent)
chain: AUAAAAGCGCCAGAACUACAGAAAUGUAGUUGACGAGGAGGAGGUUUAUCGAAUUUUCGGCGGAUGCCUCCAAA

Columns and labels:
Conditions in all cases: with glucosamine-6-phosphate
glucosamine-6-phosphate [1] = variants of: B1; experiment: self-cleavage kobs at 40 uM GlcN6P; higher = faster cleavage; RNA array
Method in brief: (§1)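 kcat and KM were obtained from weighted Michaelis–Menten fits across concentrations of kobs values. Those came from one- or two-exponential decay fits to per-tile medians normalised to baseline and to non-cleaving reference variants. The variants were barcoded ribozymes transcribed in situ by E. coli RNA polymerase on sequenced MiSeq chips and tracked through a hybridised Cy3 probe at 37 °C, with 40 μM to 10 mM glucosamine-6-phosphate in HEPES/KCl/Mg(OAc)2 buffer flowed in.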

glucosamine-6-phosphate [2] = variants of: B1; experiment: self-cleavage kobs at 640 uM GlcN6P; higher = faster cleavage; RNA array
Method in brief: as §1

glucosamine-6-phosphate [3] = variants of: B1; experiment: self-cleavage kobs at 10000 uM GlcN6P; higher = faster cleavage; RNA array
Method in brief: as §1

glucosamine-6-phosphate [4] = variants of: B1; experiment: self-cleavage kobs at 160 uM GlcN6P; higher = faster cleavage; RNA array
Method in brief: as §1

glucosamine-6-phosphate [5] = variants of: B1; experiment: self-cleavage kobs at 2500 uM GlcN6P; higher = faster cleavage; RNA array
Method in brief: as §1

Variant	self-cleavage kobs at 40 uM GlcN6P (glucosamine-6-phosphate [1]) [s⁻¹]	self-cleavage kobs at 640 uM GlcN6P (glucosamine-6-phosphate [2]) [s⁻¹]	self-cleavage kobs at 10000 uM GlcN6P (glucosamine-6-phosphate [3]) [s⁻¹]	self-cleavage kobs at 160 uM GlcN6P (glucosamine-6-phosphate [4]) [s⁻¹]	self-cleavage kobs at 2500 uM GlcN6P (glucosamine-6-phosphate [5]) [s⁻¹]
A33C C58A	< 1e-05	< 1e-05			
A6U C10A G38U	< 1e-05		< 1e-05		
C11A A14G G29A G35A A53G	< 1e-05				
A48C C50A	< 1e-05	< 1e-05	< 1e-05	< 1e-05	
G9A A15G U30C	< 1e-05				
A53U C71G	9.68e-05 ± 1.3e-05	0.000283 ± 4.7e-05	0.00158 ± 0.00036	0.000213 ± 7e-05	0.000247 ± 5.4e-05
G43C U57A	< 1e-05	< 1e-05	< 1e-05		
A6U G7U C16G C34A	< 1e-05		< 1e-05		
A33U A42U C61U	< 1e-05				
A42U C58A	< 1e-05	< 1e-05		< 1e-05	
C11G C16A G38C	< 1e-05		< 1e-05	< 1e-05	
G29C C58G	< 1e-05		4.93e-05 ± 1.5e-05		6.23e-05 ± 2.1e-05
C8U U55C	< 1e-05	< 1e-05	< 1e-05		< 1e-05
G32C C34U A64G C68G	< 1e-05		< 1e-05		
C8U G37C A42U U55C	< 1e-05				
G44U G60C	< 1e-05	< 1e-05	< 1e-05	< 1e-05	< 1e-05
A14U U30G C34U G40A A52G C68G	< 1e-05		< 1e-05		
A6C G62A	< 1e-05	< 1e-05		< 1e-05	
U54A C67G	8.43e-05 ± 1.3e-05	0.000297 ± 5.3e-05	0.00147 ± 0.00055	0.000213 ± 4.1e-05	0.000126 ± 2.2e-05
C16A A52C	< 1e-05	< 1e-05	< 1e-05	< 1e-05	
C10G A53C A64G	< 1e-05	< 1e-05	< 1e-05	< 1e-05	< 1e-05
G7U A33C	< 1e-05	< 1e-05	< 1e-05	< 1e-05	< 1e-05
C11U A64C	< 1e-05		< 1e-05		
A15U U56A	0.000156 ± 3.4e-05	0.00152 ± 0.00021	0.00509 ± 0.00093	0.000209 ± 4.3e-05	0.00224 ± 0.00059

Variant	self-cleavage kobs at 40 uM GlcN6P (glucosamine-6-phosphate [1]) [s⁻¹]	self-cleavage kobs at 640 uM GlcN6P (glucosamine-6-phosphate [2]) [s⁻¹]	self-cleavage kobs at 10000 uM GlcN6P (glucosamine-6-phosphate [3]) [s⁻¹]	self-cleavage kobs at 160 uM GlcN6P (glucosamine-6-phosphate [4]) [s⁻¹]	self-cleavage kobs at 2500 uM GlcN6P (glucosamine-6-phosphate [5]) [s⁻¹]
U31G A39G A64G	0.00023 ± 8.9e-05	0.00544 ± 0.0014	0.0288 ± 0.012		
C8G C67U	< 1e-05	< 1e-05		< 1e-05	< 1e-05
C8A G38A	< 1e-05	< 1e-05	< 1e-05	< 1e-05	< 1e-05
G29U G35U A36G	< 1e-05				
G13U G35C	< 1e-05	< 1e-05	< 1e-05	< 1e-05	< 1e-05
A33G C34A	< 1e-05		< 1e-05		
A39U C61A U65C	< 1e-05				
A12G G41U A52G U54A	< 1e-05				
G35C G38C C58A	< 1e-05			< 1e-05	< 1e-05
A64G U65G C71A	5.45e-05 ± 2.2e-05		0.00131 ± 0.00024		
A12U U45G U46A	0.000262 ± 8.5e-05				0.00886 ± 0.0031
G29A G35A C68G	0.000947 ± 0.00027		0.000106 ± 3.5e-05		
G43U U46A U57C C70A	< 1e-05	< 1e-05	< 1e-05		
A36U A52G C70A	5.42e-05 ± 1.4e-05	0.000171 ± 6.6e-05			
G35C C61G C68G	7.74e-05 ± 3e-05				
C16A A36G	< 1e-05	< 1e-05	< 1e-05	< 1e-05	
A12C A36G A64C	< 1e-05	< 1e-05	< 1e-05		
C8G U55C C61U	< 1e-05	< 1e-05			< 1e-05
G40U C61A G63C	< 1e-05			< 1e-05	< 1e-05
A6U G41A A42U	< 1e-05		< 1e-05		
A12G G29U G44A G63A	< 1e-05		< 1e-05		
G35U G60C	< 1e-05	< 1e-05	< 1e-05	< 1e-05	< 1e-05
G7A A39C G51U	< 1e-05			< 1e-05	< 1e-05
C11G A36G	< 1e-05	< 1e-05	< 1e-05	< 1e-05	< 1e-05

Variant	self-cleavage kobs at 40 uM GlcN6P (glucosamine-6-phosphate [1]) [s⁻¹]	self-cleavage kobs at 640 uM GlcN6P (glucosamine-6-phosphate [2]) [s⁻¹]	self-cleavage kobs at 10000 uM GlcN6P (glucosamine-6-phosphate [3]) [s⁻¹]	self-cleavage kobs at 160 uM GlcN6P (glucosamine-6-phosphate [4]) [s⁻¹]	self-cleavage kobs at 2500 uM GlcN6P (glucosamine-6-phosphate [5]) [s⁻¹]
G38A C67U C71A	< 1e-05		< 1e-05		
G35U C50G	3.53e-05 ± 1.5e-05			9.05e-05 ± 2.7e-05	0.000141 ± 3.9e-05
G13U G41C U46G C50G	< 1e-05				
C11U A14U G43U U54A G63A	< 1e-05				< 1e-05
A14U G37U C70A	< 1e-05				
C16A G37C A48U U49C A52G G62C	< 1e-05		< 1e-05		
C10A C11G	< 1e-05	< 1e-05		< 1e-05	
A12U U30A C70U	0.000748 ± 0.00013		0.0461 ± 0.017		
C11G U54C C70U	< 1e-05		< 1e-05		
A14G A53G	0.00182 ± 0.00029	0.0226 ± 0.0043	0.0452 ± 0.013	0.00412 ± 0.00073	0.0146 ± 0.0045
C11U G44C G60U	< 1e-05		< 1e-05		
G41C C50G	< 1e-05	< 1e-05	< 1e-05	< 1e-05	< 1e-05
G9U U69C	< 1e-05				< 1e-05
G13A C50G U55G U57G G62U	8.98e-05 ± 2.1e-05		5.32e-05 ± 1.5e-05		
G29C U30C A33C A42G U55A U56A	< 1e-05		< 1e-05		
C8G U31A A36G	< 1e-05				
U31C A48G	< 1e-05			< 1e-05	
C50A U57G C68U	< 1e-05		< 1e-05		
G44A G62A	< 1e-05	< 1e-05	< 1e-05	< 1e-05	< 1e-05
U30G G44U	< 1e-05		4.23e-05 ± 1.3e-05	< 1e-05	
G32C U56C	< 1e-05	< 1e-05		< 1e-05	
A53G G66U C67A	7.95e-05 ± 1.9e-05		0.00186 ± 0.00059		
A14G A39U G44A	0.000196 ± 4.6e-05		0.00841 ± 0.0018		
A33C G62C	< 1e-05	< 1e-05	< 1e-05		< 1e-05

Variant	self-cleavage kobs at 40 uM GlcN6P (glucosamine-6-phosphate [1]) [s⁻¹]	self-cleavage kobs at 640 uM GlcN6P (glucosamine-6-phosphate [2]) [s⁻¹]	self-cleavage kobs at 10000 uM GlcN6P (glucosamine-6-phosphate [3]) [s⁻¹]	self-cleavage kobs at 160 uM GlcN6P (glucosamine-6-phosphate [4]) [s⁻¹]	self-cleavage kobs at 2500 uM GlcN6P (glucosamine-6-phosphate [5]) [s⁻¹]
G35C U54A	< 1e-05	< 1e-05	< 1e-05		< 1e-05
C50A G59C	< 1e-05	< 1e-05	< 1e-05		< 1e-05
U57G G59C	< 1e-05	< 1e-05	< 1e-05		
G60C A64G	< 1e-05	< 1e-05	< 1e-05	< 1e-05	< 1e-05
U31A U65C U69C	< 1e-05				
A14G G29C G40A C58U	< 1e-05	< 1e-05			
A42U U46G C50U C70U	< 1e-05		< 1e-05		
C16U U56A	0.000484 ± 9.4e-05	0.00448 ± 0.0011	0.0273 ± 0.0079	0.000861 ± 0.00013	0.00493 ± 0.0012
A33G C61G	< 1e-05	< 1e-05	< 1e-05	< 1e-05	
G7U U30G C50G C61A	0.000244 ± 8.9e-05		0.000292 ± 7.4e-05		
A12C C70U	0.000475 ± 4e-05	0.00328 ± 0.00037	0.0163 ± 0.0022	0.00111 ± 0.00017	0.0217 ± 0.0053
U31G G60C C68A	< 1e-05				
C8G G60U A64U	< 1e-05		< 1e-05		
C11G A48C	< 1e-05		< 1e-05		
A12U G40U C61A	< 1e-05		< 1e-05		
A6U C16A C34A G38C	< 1e-05	< 1e-05	< 1e-05		
C10U A33U A52U	< 1e-05	< 1e-05	< 1e-05		
C50G U57A C58G	8.29e-05 ± 2.4e-05	0.000297 ± 9.4e-05		0.000517 ± 0.00012	7.43e-05 ± 2.1e-05
C10U U31G G40U	< 1e-05				
C8A G62U	< 1e-05		5.53e-05 ± 1.6e-05	< 1e-05	
U31A U46A C61U C70U	< 1e-05				

From the supplement of paper PMC7125110
